Experimental data as given in US8846623B2, “Cancer-targeting peptides and uses thereof in cancer treatment and diagnosis” (Academia Sinica, priority 2010, dated 2014).
Square brackets hold non-standard residues; d marks the D form. Ends that are not written are not given here. Peptide text beside a SMILES is read from it.

Columns and labels:
GRP78 = GRP78 (Homo sapiens, UniProt P11021); experiment: Dissociation constant of L-peptide binding to GRP78; conditions: dose-dependent binding to GRP78
[1] = biological target: full-length recombinant GRP78 (Homo sapiens, UniProt P11021); experiment: Biacore binding assay of peptides; conditions: for Binding index: peptide at 50 μM, difference of RUs divided by molecular weight, normalized to the L-peptide; for Binding to GRP78 compared to the L-peptide: Biacore; for Binding to GRP78 compared to the L-peptide / binding responses in Biacore: in words
full-length recombinant GRP78, sequence (P11021 19-654): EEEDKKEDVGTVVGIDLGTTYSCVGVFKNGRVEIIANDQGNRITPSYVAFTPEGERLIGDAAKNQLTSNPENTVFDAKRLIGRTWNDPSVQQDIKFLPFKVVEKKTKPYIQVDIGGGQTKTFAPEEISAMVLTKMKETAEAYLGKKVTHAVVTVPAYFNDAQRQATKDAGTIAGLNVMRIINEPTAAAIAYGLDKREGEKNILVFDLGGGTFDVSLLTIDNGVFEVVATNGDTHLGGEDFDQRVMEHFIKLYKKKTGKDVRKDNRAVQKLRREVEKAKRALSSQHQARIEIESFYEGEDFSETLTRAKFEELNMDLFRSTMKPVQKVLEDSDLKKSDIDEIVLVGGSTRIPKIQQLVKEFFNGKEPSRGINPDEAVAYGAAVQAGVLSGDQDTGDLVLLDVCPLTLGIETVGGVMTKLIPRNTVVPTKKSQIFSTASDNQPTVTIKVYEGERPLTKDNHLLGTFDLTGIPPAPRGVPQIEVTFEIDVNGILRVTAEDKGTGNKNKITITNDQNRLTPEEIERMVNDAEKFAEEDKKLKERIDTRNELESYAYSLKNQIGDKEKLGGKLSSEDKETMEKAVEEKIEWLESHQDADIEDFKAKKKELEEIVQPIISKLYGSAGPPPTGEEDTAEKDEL
Procedure: 26 candidate peptides designed by the method described in Example 1 (listed in Table 6 below) above and peptide CdL, a negative control, were synthesized by conventional chemical synthesis and subjected to the surface-plasmon-resonance based method described below to examine the binding activities of the peptides to human GRP78.
The chip NTA and HBS-P buffer were obtained from GE Healthcare. Sensor chip NTA was prepared by combining Ni-ion chelation and covalent immobilization of N-His tagged GRP78 via amine-coupling with nitrilotriacetic acid on chip NTA (FIG. 6). To immobilize GRP78 protein on sensor chip for peptide-binding assay using Biacore, the methods based on Ni-ion chelation and amine coupling reaction were combined. Sensor chip NTA was prepared by chelation followed by covalent immobilization of N-His-tagged GRP78 via amine-coupling at the nitrilotriacetic acid group on chip NTA. The sensor chip NTA, HBS-P buffer and amine coupling kits were all obtained from GE Healthcare. First, the activation of chip surface using EDC and NHS reagents for amine coupling were according to the standard procedure from manufacturer's instruction. Additionally, one-minute pulse of NiCl2 solution (500 μM) was used to attract His-tagged GRP78 to the surface of sensor chip and formed covalent bond subsequently in the condition of HBS-P buffer (pH 7.4). The resulting differences of RU were about 5,000-6,000 RU. After de-activation by ethanolamine and washed with EDTA (3 mM), the prepared sensor chip was then applied to Biacore X for binding assay. The HBS-P buffer containing 1 mM Gly was used as running buffer for binding assay. Solution of 20 mM sodium hydroxide dissolved in running buffer was used to regenerate the chip surface by one-minute pulse.
The sensor chip thus prepared was applied to Biacore X for determining the binding between the peptides and GRP78. The HBS-P buffer containing 1 mM Gly was used as a running buffer. A solution of 20 mM sodium hydroxide dissolved in the running buffer was used to regenerate chip surface by 1-minute pulses.
The binding of various peptides to GRP78 is also shown as a binding index in Table 6. The binding index represents the difference of resonance units (RUs) divided by the molecular weight of each peptide and was normalized by comparison to the L-peptide.

TW01 cells = experiment: Flow cytometry binding of FITC-labeled peptide, TW01; format: cell-based; conditions: Nasopharyngeal
Procedure: (§1) Cells were grown to 80% confluence and harvested with 5 mmol/L EDTA in PBS. Breast cancer specimens were obtained from patients who underwent initial surgery at Tri-Service General Hospital (Taipei, Taiwan). The clinical breast cancer specimens were sliced to fragments of 1 mm2 in size and subjected to enzymatic digestion by collagenase (1,000 U/mL), hyaluronidase (300 U/mL), and DNase I (100 μg/mL) at 37° C. for 2 hours. Primary breast tumor cells were collected after filtration through a 100 μm cell strainer (BD Biosciences) and re-suspended. For transplantation, tumor cells mixed with normal human breast fibroblasts and Matrigel were subcutaneously injected into mammary fat pads of female NOD/SCID mice received a sub-lethal dose of gamma irradiation in advance. After transplantation, cells of xenografted tumors were isolated and inoculated in NOD/SCID mice for serial passages. The cancer cell lines, xenograft cells, and primary breast tumor cells were re-suspended in a FACS buffer (PBS with 2% fetal bovine serum) and incubated at room temperature for 30 min with FITC-conjugated various peptides. To determine breast cancer stem cell (BCSCs) and non-breast cancer stem cell (non-BCSC) populations from xenografts, the cells were stained with a mixture of anti-H2Kd-biotin followed by streptavidin-PER-CP, anti-CD24-PE, anti-CD44-APC and FITC-conjugated various peptides. The primary breast tumor cells were stained with anti-CD45-PerCP-Cy5.5 antibodies, instead of H2Kd staining. The stained cells were then subjected to FACS analysis.

MDA-MB-231 cells = experiment: Flow cytometry binding of FITC-labeled peptide, MDA-MB-231; format: cell-based; conditions: Breast
Procedure: as §1

[2] = tested on: human primary breast cancer BC0145 and BC0244 engrafted in NOD/SCID mice; experiment: Flow cytometry binding of FITC-labeled peptides to xenograft cells (BCSC-enriched and non-BCSC); format: cell-based; conditions: for Binding capacities in vitro compared with L-peptide: both BCSCs and non-BCSCs
Procedure: To evaluate the in vitro binding abilities of cancer-targeting peptides described herein, the FITC-labeled L-peptide, P-6, P-12, P-13, and P-16 were tested for their binding activities to cancer cells, primary breast cancer engrafted in NOD/SCID mice, and clinical breast cancer specimens by a flow cytometric analysis as described below.
as §1
The binding capacities of the L-peptide and the P-6, P-12, P-13, and P-16 peptides to two xenograft samples from NOD-SCID mice transplanted with human primary breast cancer cell lines BC0145 and BC0244 were evaluated with special focus on their binding to the BCSC subpopulation enriched from the breast cancer cells. Breast cancer cells harvested from engrafted tumors were stained with H2Kd to gate out mouse cells, and stained with anti-CD24 and anti-CD44 antibodies to distinguish BCSC-enriched cells (CD24^−CD44^+) from non-BCSC cells. These cells were co-stained with one of the above-noted peptides, which was FITC-labeled and subjected to flow cytometric analysis. […] The binding abilities of these peptides to clinical breast specimens were similar to those to xenograft samples. […] FIG. 7, panel d.

GRP78, sequence (P11021 19-654): as above

Compound	Binding index [1]	further results
CC(C)C[C@H](NC(=O)[C@H](CC(C)C)NC(=O)[C@@H](N)CCCNC(=N)N)C(=O)N[C@@H](CC(=O)O)C(=O)N[C@H](C(=O)N[C@@H](CC(N)=O)C(=O)N[C@@H](CCCNC(=N)N)C(=O)N1CCC[C@H]1C(=O)N[C@@H](CC(C)C)C(=O)N[C@@H](CC(C)C)C(=O)N1CCC[C@H]1C(=O)N[C@@H](Cc1ccc(O)cc1)C(=O)O)[C@@H](C)O [L-peptide] (H-RLLDTNRPLLPY-OH)		Kd (GRP78): 1 to 10 µM
RLLDTNRPFLFY [P-13]	1.4~3.5	Binding to GRP78 compared to the L-peptide [1]: bound to GRP78 better than the L-peptide; binding responses in Biacore [1]: significant binding responses; Binding ability (TW01 cells): bound; Binding ability (MDA-MB-231 cells): bound; Staining strength (order of binding) ([2]; FITC-labeled peptides, BCSC-enriched and non-BCSC cells of BC0145 and BC0244 xenografts): stained most strongly; Binding capacities in vitro compared with L-peptide ([2]; FITC-labeled peptides): greater binding capacities in vitro than L-peptide
RLLDTNRPFLKY [P-10]	<0.2	
RLLDTNRPFLPY [P-6]	1.1~1.52	Binding to GRP78 compared to the L-peptide [1]: bound to GRP78 better than the L-peptide; binding responses in Biacore [1]: significant binding responses; Binding ability (TW01 cells): bound; Binding ability (MDA-MB-231 cells): bound; binding capacity to BCSC-enriched cells ([2]; FITC-labeled peptide, BCSC-enriched cells isolated from the BC0145 xenograft): equivalent to P-12; Binding capacities in vitro compared with L-peptide ([2]; FITC-labeled peptides): greater binding capacities in vitro than L-peptide
RLLDTNRPHLKY [P-15]	<0.2	
RLLDTNRPHLWY [P-12]	1.2~3.5	Binding to GRP78 compared to the L-peptide [1]: bound to GRP78 better than the L-peptide; binding responses in Biacore [1]: significant binding responses; Binding ability (TW01 cells): bound; Binding ability (MDA-MB-231 cells): bound; Binding capacities in vitro compared with L-peptide ([2]; FITC-labeled peptides): greater binding capacities in vitro than L-peptide
RLLDTNRPKLFY [P-4]	<0.2	
RLLDTNRPKLRY [P-16]	<0.2	
RLLDTNRPKLVY [P-2]	<0.2	
RLLDTNRPL(d-L)PY (RLLDTNRPL[dL]PY) [CdL, negative control peptide, reference compound]	<0.2	
RLLDTNRPLLGY [P-11]	0.77	
RLLDTNRPLLLY [P-14]	0.21	
RLLDTNRPMLKY [P-8]	<0.2	
RLLDTNRPMLMY [P-5]	<0.2	
RLLDTNRPPLCY [P-9]	<0.2	
RLLDTNRPQLVY [P-3]	<0.2	
RLLDTNRPRLEY [P-17]	<0.2	
RLLDTNRPSLFY [P-7]	<0.2	
RLLDTNRPYLKY [P-1]	<0.2	

The next lines start with results.

Binding index [1]	Compound	further results
<0.2	RLLDTNRPDLPY [PA-3]	
<0.2	RLLDTNRPELPY [PA-2]	
1.6	RLLDTNRPFLWY [PB-1]	binding responses in Biacore [1]: significant binding responses
0.47	RLLDTNRPHLPY [PA-6]	
1.15	RLLDTNRPLLPY(CONH2) (RLLDTNRPLLPY-NH2) [PB-3, L-peptide modified with the amidation (CONH2)]	Binding to GRP78 compared to the L-peptide [1]: did not significantly affect the binding affinity; binding responses in Biacore [1]: significant binding responses
0.31	RLLDTNRPNLPY [PA-4]	
0.3	RLLDTNRPQLPY [PA-5]	
0.35	RLLDTNRPWLPY [PA-1]	Binding to GRP78 compared to the L-peptide [1]: significantly decreased the binding
3	RLLDTNRPYLWY [PB-2]	binding responses in Biacore [1]: significant binding responses
